{"source": "paper PMC3438196", "test_in_all_cases": "two-hybrid; MAPPIT (mammalian two-hybrid) in intact HEK293T cells: bait on the EpoR/leptin receptor chimera, prey on gp130 fragments, pXP2d2-rPAP1-luciferase reporter; fold induction of luciferase, Epo-stimulated (10 ng/ml hEpo) over unstimulated; 6-well or 96-well calcium phosphate transfection", "key": {"[1]": {"target": "Apobec3G D128K MAPPIT bait (human) (UniProt Q9HC16)", "sequence (Q9HC16 whole entry D128K)": "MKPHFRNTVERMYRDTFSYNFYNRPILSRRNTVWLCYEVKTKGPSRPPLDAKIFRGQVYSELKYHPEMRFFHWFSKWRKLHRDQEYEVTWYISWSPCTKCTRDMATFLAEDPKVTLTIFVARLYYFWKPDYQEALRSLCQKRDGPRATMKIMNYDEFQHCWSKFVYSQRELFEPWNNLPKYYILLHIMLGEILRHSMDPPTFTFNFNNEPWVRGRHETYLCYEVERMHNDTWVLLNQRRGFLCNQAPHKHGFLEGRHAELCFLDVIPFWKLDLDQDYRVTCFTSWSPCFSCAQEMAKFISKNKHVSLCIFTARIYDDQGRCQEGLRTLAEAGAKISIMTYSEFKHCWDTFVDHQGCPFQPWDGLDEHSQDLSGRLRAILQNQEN"}, "[2]": {"target": "Apobec3G D128Q MAPPIT bait (human) (UniProt Q9HC16)", "sequence (Q9HC16 whole entry D128Q)": "as the sequence (Q9HC16 whole entry D128K) above, with K128Q counted along it"}, "[3]": {"target": "Apobec3G D130A MAPPIT bait (human) (UniProt Q9HC16)", "sequence (Q9HC16 whole entry D130A)": "as the sequence (Q9HC16 whole entry D128K) above, with K128D, D130A counted along it"}, "[4]": {"target": "Apobec3G E110K MAPPIT bait (human) (UniProt Q9HC16)", "sequence (Q9HC16 whole entry E110K)": "as the sequence (Q9HC16 whole entry D128K) above, with E110K, K128D counted along it"}, "[5]": {"target": "Apobec3G LS27-28AA MAPPIT bait (human) (UniProt Q9HC16)", "sequence (Q9HC16 whole entry L27A/S28A)": "as the sequence (Q9HC16 whole entry D128K) above, with L27A, S28A, K128D counted along it"}, "[6]": {"target": "Apobec3G N31S MAPPIT bait (human) (UniProt Q9HC16)", "sequence (Q9HC16 whole entry N31S)": "as the sequence (Q9HC16 whole entry D128K) above, with N31S, K128D counted along it"}, "[7]": {"target": "Apobec3G P129A MAPPIT bait (human) (UniProt Q9HC16)", "sequence (Q9HC16 whole entry P129A)": "as the sequence (Q9HC16 whole entry D128K) above, with K128D, P129A counted along it"}, "[8]": {"target": "Apobec3G R11S MAPPIT bait (human) (UniProt Q9HC16)", "sequence (Q9HC16 whole entry R11S)": "as the sequence (Q9HC16 whole entry D128K) above, with R11S, K128D counted along it"}, "[9]": {"target": "Apobec3G R136A MAPPIT bait (human) (UniProt Q9HC16)", "sequence (Q9HC16 whole entry R136A)": "as the sequence (Q9HC16 whole entry D128K) above, with K128D, R136A counted along it"}, "[10]": {"target": "Apobec3G R14S MAPPIT bait (human) (UniProt Q9HC16)", "sequence (Q9HC16 whole entry R14S)": "as the sequence (Q9HC16 whole entry D128K) above, with R14S, K128D counted along it"}, "[11]": {"target": "Apobec3G T32D MAPPIT bait (human) (UniProt Q9HC16)", "sequence (Q9HC16 whole entry T32D)": "as the sequence (Q9HC16 whole entry D128K) above, with T32D, K128D counted along it"}, "[12]": {"target": "Apobec3G T32Q MAPPIT bait (human) (UniProt Q9HC16)", "sequence (Q9HC16 whole entry T32Q)": "as the sequence (Q9HC16 whole entry D128K) above, with T32Q, K128D counted along it"}, "[13]": {"target": "Apobec3G TF106-107AA MAPPIT bait (human) (UniProt Q9HC16)", "sequence (Q9HC16 whole entry T106A/F107A)": "as the sequence (Q9HC16 whole entry D128K) above, with T106A, F107A, K128D counted along it"}, "[14]": {"target": "Apobec3G W34A MAPPIT bait (human) (UniProt Q9HC16)", "sequence (Q9HC16 whole entry W34A)": "as the sequence (Q9HC16 whole entry D128K) above, with W34A, K128D counted along it"}, "[15]": {"target": "Apobec3G Y124A MAPPIT bait (human) (UniProt Q9HC16)", "sequence (Q9HC16 whole entry Y124A)": "as the sequence (Q9HC16 whole entry D128K) above, with Y124A, K128D counted along it"}, "[16]": {"target": "Apobec3G Y19A MAPPIT bait (human) (UniProt Q9HC16)", "sequence (Q9HC16 whole entry Y19A)": "as the sequence (Q9HC16 whole entry D128K) above, with Y19A, K128D counted along it"}}}
{"substance": "Gagpol MAPPIT prey (pMG2-Gagpol) (natural protein)", "values": [{"measurement": "MAPPIT signal, % of WT", "setting": "[1]", "result": "98 % of WT"}, {"measurement": "MAPPIT signal, % of WT", "setting": "[2]", "result": "71 % of WT"}, {"measurement": "MAPPIT signal, % of WT", "setting": "[3]", "result": "103 % of WT"}, {"measurement": "MAPPIT signal, % of WT", "setting": "[4]", "result": "84 % of WT"}, {"measurement": "MAPPIT signal, % of WT", "setting": "[5]", "result": "48 % of WT"}, {"measurement": "MAPPIT signal, % of WT", "setting": "[6]", "result": "78 % of WT"}, {"measurement": "MAPPIT signal, % of WT", "setting": "[7]", "result": "70 % of WT"}, {"measurement": "MAPPIT signal, % of WT", "setting": "[8]", "result": "83 % of WT"}, {"measurement": "MAPPIT signal, % of WT", "setting": "[9]", "result": "48 % of WT"}, {"measurement": "MAPPIT signal, % of WT", "setting": "[10]", "result": "106 % of WT"}, {"measurement": "MAPPIT signal, % of WT", "setting": "[11]", "result": "111 % of WT"}, {"measurement": "MAPPIT signal, % of WT", "setting": "[12]", "result": "118 % of WT"}, {"measurement": "MAPPIT signal, % of WT", "setting": "[13]", "result": "94 % of WT"}, {"measurement": "MAPPIT signal, % of WT", "setting": "[14]", "result": "50 % of WT"}, {"measurement": "MAPPIT signal, % of WT", "setting": "[15]", "result": "61 % of WT"}, {"measurement": "MAPPIT signal, % of WT", "setting": "[16]", "result": "36 % of WT"}]}
